Measurements taken from publication PMC12757645, “Bacillus subtilis encodes three N-acetylcysteine deacetylase enzymes that can catalyze the final step in S-(2-succino)cysteine breakdown” (The Journal of Biological Chemistry, 2025).

B1: ScmP (Bacillus subtilis subsp. subtilis str. 168) (protein)
chain: MADKAFHTRLINMRRDLHEHPELSFQEVETTKKIRRWLEEEQIEILDVPQLKTGVIAEIKGREDGPVIAIRADIDALPIQEQTNLPFASKVDGTMHACGHDFHTASIIGTAMLLNQRRAELKGTVRFIFQPAEEIAAGARKVLEAGVLNGVSAIFGMHNKPDLPVGTIGVKEGPLMASVDRFEIVIKGKGGHAGIPNNSIDPIAAAGQIISGLQSVVSRNISSLQNAVVSITRVQAGTSWNVIPDQAEMEGTVRTFQKEARQAVPEHMRRVAEGIAAGYGAQAEFKWFPYLPSVQNDGTFLNAASEAAARLGYQTVHAEQSPGGEDFALYQEKIPGFFVWMGTNGTEEWHHPAFTLDEEALTVASQYFAELAVIVLETIK
B2: YhaA (Bacillus subtilis subsp. subtilis str. 168) (protein)
chain: MSISTLQKEINKQLDGCFEEMVEIRRHFHMYPELSFQEEKTAAFIASYYESLGVPIRTNVGGRGVLANIEGSEPGPTVALRADFDALPIQDEKDVPYASKVPGVMHACGHDGHTAALLAVAKVLHQNRHELKGTFVMIHQHAEEYYPGGAKPMIDDGCLENTDVIFGTHLWATEPLGTILCRPGAVMAAADRFTIKVFGKGGHGAHPHDTKDAVLIGSQIVSSLQHIVSRKVNPIQSAVISTGSFIADNPFNVIADQAVLIGTARSFDENVRDILEKEIEAVVKGICSMHGASYEYTYEQGYPAVVNHPAETNHLVSTAKNTEGVQQVIDGEPQMGGEDFAYYLQNVKGTFFFTGAAPEQPERVYSHHHPKFDINEKAMLTAAKVLAGAAITYHQL
B3: YtnL (Bacillus subtilis subsp. subtilis str. 168) (protein)
chain: MSLDYWRNIEGSYPYQTTGNDILTLKEESNPVNLSTLEKQLIGIRRHLHQYPELSKEEFETTAFIKKCLKEKGIQIRPTALKTGVFADIAGESEGPAIALRADIDALPIEEKTGLPYASKHKGIMHACGHDFHTAALLGAAFLLKENQDSLKGKIRLLFQPAEEAGAGATKVIEDGQLDGIDAVIGLHNKPDIAVGTVGLKTGPLMAAVDRFKVEIEGKGAHAALPHNGFDPIIGASQLIVALQTIVSRNVNPLQSAILTVGKINGGSTWNVIPDTVVIEGTVRTFDSEVRNQVKQRFFAVTEQISAAFSLKANVKWHSGPPPLCNDEAITGLVRDAAHKAKLQVIDPAPSTAGEDFAYYLEHIPGSFAFFGTDGDHDWHHPAFTIDETAIIKASYFLYESAKRLLDSNEESKISD

Substrate: CC(=O)N[C@@H](CS)C(=O)O
Experiment: purified protein
Type: biochemical, Bacillus subtilis
Details: 50 mM potassium phosphate pH 7.8, 5 mM CoCl2, 37 °C

Protein	Km [µM]	Vmax [µmol/min/mg]	kcat [s⁻¹]	kcat/Km [M⁻¹ s⁻¹]
B1	494.5 ± 67.4	112	82.5 ± 9.2	–
B2	895.8 ± 338.1	24.7	18.8 ± 1.3	21000 ± 3700
B3	855.0 ± 339.2	43	34.2 ± 3.8	40000 ± 11000
